Biological target: Human CDw52 (human) (UniProt P31358)
Test: cell-based or functional assay

51Cr release assay, lysis (apoptosis) of macrophage-cell line THP-1 after 18 h: 70%
51Cr release assay, lysis (apoptosis) of macrophage-cell line U-937 after 18 h: 55%
Substance: CAMPATH (antibody)

Reference: patent US20060110396A1
